Data on five molecules can be found in US20200102387A1 (CELGENE, published 2020).

One assay has as its target T1, human SIRPα on cells (human, UniProt P78324 31-504).
T1 construct: whole, on cells; also called human SIRPα-CHO; Hu SIRPα-CHO-K1
As to the kind of experiment: cell binding, Hu SIRPα-CHO-K1 cells, 100 nM antibody.

The target in assay [1] is T2, cynomolgus SIRPα on cells (cynomolgus, UniProt P78324 31-373 (human entry)).
T2 construct: also called cyno SIRPα-CHO; Cyno SIRPα-CHO-K1; not shown: Transmembrane and cytoplasmic region of cynomolgus SIRPα
T2 chain: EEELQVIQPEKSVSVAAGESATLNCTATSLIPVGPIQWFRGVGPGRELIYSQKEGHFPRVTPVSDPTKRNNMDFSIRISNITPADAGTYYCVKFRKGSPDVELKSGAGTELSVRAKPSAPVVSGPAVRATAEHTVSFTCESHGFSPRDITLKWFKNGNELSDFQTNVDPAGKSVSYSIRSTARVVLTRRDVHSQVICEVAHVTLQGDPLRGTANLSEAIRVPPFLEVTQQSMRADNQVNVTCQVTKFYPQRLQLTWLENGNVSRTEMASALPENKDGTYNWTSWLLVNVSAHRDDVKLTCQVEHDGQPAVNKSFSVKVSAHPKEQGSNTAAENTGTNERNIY
As to the kind of experiment: cell binding, Cyno SIRPα-CHO-K1 cells, 100 nM antibody.

Assay [2] addresses T3, human SIRPα v1-Fc (SIRPα1 extracellular domain fused to human IGHG1_Fc) (human, UniProt P78324 31-373; P0DOX5 223-449 = IgG part).
T3 construct: also called V1 (e.g. SIRPα1); SIRPα V1: DLN
The assay can be described thus: BLI Octet, antigen-Fc on biosensor.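 Further: antigen captured on the biosensor tip and then immersed in solutions of the test antibodies, which act as the analyte.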 In general terms: Biolayer interferometry detects binding as a change in optical thickness at a sensor tip.

Assay [3] addresses T4, human SIRPα v2-Fc (SIRPα2 extracellular domain fused to human IGHG1_Fc) (human, UniProt P78324 31-373; P0DOX5 223-449 = IgG part).
T4 construct: as m38; also called V2 (e.g. SIRPα2); SIRPα V2:ESE
The assay can be described thus: BLI Octet, antigen-Fc on biosensor.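 Further: antigen captured on the biosensor tip and then immersed in solutions of the test antibodies, which act as the analyte.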

The target of a further assay is T5, human SIRPβ-Fc (human).
T5 construct: a signal peptide may be part of the entry
The assay can be described thus: BLI Octet, antigen-Fc on biosensor.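 Further: antigen captured on the biosensor tip and then immersed in solutions of the test antibodies, which act as the analyte.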

The target in a further assay is T6, human SIRPγ-Fc (human).
T6 construct: a signal peptide may be part of the entry
As to the kind of experiment: BLI Octet, antigen-Fc on biosensor.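 Further: antigen captured on the biosensor tip and then immersed in solutions of the test antibodies, which act as the analyte.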

A further assay has as its target T7, cyno SIRPα-Fc (cynomolgus).
T7 construct: a signal peptide may be part of the entry
As to the kind of experiment: BLI Octet, antigen-Fc on biosensor.

The next assay addresses T8, mouse SIRPα-Fc (mouse).
T8 construct: a signal peptide may be part of the entry; also called Ms; Ms SIRPα-Fc
The assay can be described thus: BLI Octet, antigen-Fc on biosensor.

Assay [4] addresses T9, human SIRPα v6-Fc (SIRPα6 extracellular domain fused to human IGHG1_Fc) (human, UniProt P78324 31-373; P0DOX5 223-449 = IgG part).
T9 construct: as m38; also called V6 (e.g. SIRPα6)
The assay can be described thus: BLI Octet, antigen-Fc on biosensor.

Assay [5] addresses T10, human SIRPα v3-Fc (SIRPα3 extracellular domain fused to human IGHG1_Fc) (human, UniProt P78324 31-373; P0DOX5 223-449 = IgG part).
T10 construct: as m38; also called V3 (e.g. SIRPα3)
The assay can be described thus: BLI Octet, antigen-Fc on biosensor.

Assay [6] has as its target T11, human SIRPα v5-Fc (SIRPα5 extracellular domain fused to human IGHG1_Fc) (human, UniProt P78324 31-373; P0DOX5 223-449 = IgG part).
T11 construct: as m38; also called V5 (e.g. SIRPα5)
As to the kind of experiment: BLI Octet, antigen-Fc on biosensor.

The target of assay [7] is T12, human SIRPα v4-Fc (SIRPα4 extracellular domain fused to human IGHG1_Fc) (human, UniProt P78324 31-373; P0DOX5 223-449 = IgG part).
T12 construct: as m38; also called V4 (e.g. SIRPα4)
The assay can be described thus: BLI Octet, antigen-Fc on biosensor.

In another assay the target is T13, FcγR3A (CD16aV158) (human, UniProt P08637 17-254).
T13 construct: whole, on cells
The assay can be described thus: cell binding, FcγR-engineered HEK293 cells.

In another assay the target is T14, FcγR1 (CD64) (human, UniProt P12314 16-374).
T14 construct: whole, on cells
As to the kind of experiment: cell binding, FcγR-engineered HEK293 cells.

Positions count from the first letter of the chain named.

T8 sequence (chain, as listed by the source limits assumed): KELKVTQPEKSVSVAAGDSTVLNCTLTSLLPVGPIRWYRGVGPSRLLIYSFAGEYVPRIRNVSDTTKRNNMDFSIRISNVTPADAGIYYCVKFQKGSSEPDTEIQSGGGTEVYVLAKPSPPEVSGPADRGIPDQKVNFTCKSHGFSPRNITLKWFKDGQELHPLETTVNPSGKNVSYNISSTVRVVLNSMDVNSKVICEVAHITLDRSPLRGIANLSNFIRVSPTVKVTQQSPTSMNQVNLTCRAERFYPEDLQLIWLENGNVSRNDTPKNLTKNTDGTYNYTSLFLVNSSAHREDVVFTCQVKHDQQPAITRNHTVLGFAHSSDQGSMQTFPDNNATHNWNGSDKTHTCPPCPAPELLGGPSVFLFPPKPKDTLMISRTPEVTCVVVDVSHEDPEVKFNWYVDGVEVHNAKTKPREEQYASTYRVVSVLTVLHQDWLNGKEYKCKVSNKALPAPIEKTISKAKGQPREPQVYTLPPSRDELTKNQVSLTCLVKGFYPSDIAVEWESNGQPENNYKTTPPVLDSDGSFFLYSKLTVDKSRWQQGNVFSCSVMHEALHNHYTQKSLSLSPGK
T14 sequence (P12314 16-374): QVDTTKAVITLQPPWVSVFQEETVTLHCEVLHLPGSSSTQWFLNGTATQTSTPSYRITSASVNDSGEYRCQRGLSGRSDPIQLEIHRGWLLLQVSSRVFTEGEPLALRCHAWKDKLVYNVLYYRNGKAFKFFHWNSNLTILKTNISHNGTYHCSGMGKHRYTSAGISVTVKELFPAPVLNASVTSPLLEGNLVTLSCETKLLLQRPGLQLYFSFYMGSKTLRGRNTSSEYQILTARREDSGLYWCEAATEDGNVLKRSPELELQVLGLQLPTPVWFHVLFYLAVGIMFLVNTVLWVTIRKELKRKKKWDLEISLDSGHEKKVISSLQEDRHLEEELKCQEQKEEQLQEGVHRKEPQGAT
T13 sequence (P08637 17-254 F176V): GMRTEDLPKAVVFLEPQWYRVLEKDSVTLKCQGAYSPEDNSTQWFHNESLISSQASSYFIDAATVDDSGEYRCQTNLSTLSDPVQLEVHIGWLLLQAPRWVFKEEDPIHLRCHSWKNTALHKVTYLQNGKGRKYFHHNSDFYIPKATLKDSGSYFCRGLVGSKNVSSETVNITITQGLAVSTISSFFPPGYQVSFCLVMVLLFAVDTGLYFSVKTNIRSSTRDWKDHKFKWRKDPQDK

B1: SIRPAB-9 (antibody, human IgG1, kappa, V domains shown)
VH: QVQLVQSGAEVKKPGASVKVSCKASGYTFGGYGISWVRQAPGQGLEWMGWISAYGGETNYAQKLQGRVTMTTDTSTSTAYMELRSLRSDDTAVYYCAREAGSSWYDFDLWGRGTLVTVSS
VL: DIQMTQSPSSVSASVGDRVTITCRASQGISSWLAWYQQKPGKAPKLLIYAASNLQSGVPSRFSGSGSGTDFTLTISSLQPEDFATYYCQQGASFPITFGGGTKVEIKR
In the case of B1, the figures for the “fold increase over background (100 nM)” value (with human SIRPα on cells; in [1]) were 2650 fold and 2300 fold, respectively. The Kd (as a rule, the free concentration of one partner at which half of the binding sites on the other are occupied at equilibrium, for simple one-to-one binding) in assay [2] was found to be 0.714 nM; in assay [3], 23 nM; with human SIRPβ-Fc it was 2.79 nM; with human SIRPγ-Fc, 1.37 nM; with cyno SIRPα-Fc, 18.8 nM; in [4] it was 1.56 nM. Further, the Kd in [5] is 0.53 nM; in assay [6], 4.75 nM; in [7], 7.69 nM. In addition, the koff – broadly, a measure of how fast the partners let go of each other – in assay [2] worked out at 0.000757 s⁻¹; in [3], 0.0185 s⁻¹; in the assay with human SIRPβ-Fc, 0.00284 s⁻¹; in the assay with human SIRPγ-Fc it was 0.00161 s⁻¹; with cyno SIRPα-Fc, 0.0212 s⁻¹; in assay [4] it was 0.00182 s⁻¹. The koff in assay [5] turned out to be 0.000515 s⁻¹; in assay [6], 0.00462 s⁻¹; in assay [7] it was 0.00777 s⁻¹. Moreover, the on-rate (kon) (in general, a measure of how fast the partners come together) is 1.06e+06 M⁻¹ s⁻¹ in assay [2]; 810000 M⁻¹ s⁻¹ in assay [3]; 1.02e+06 M⁻¹ s⁻¹ with human SIRPβ-Fc; 1.17e+06 M⁻¹ s⁻¹ with human SIRPγ-Fc; 1.13e+06 M⁻¹ s⁻¹ with cyno SIRPα-Fc; 1.17e+06 M⁻¹ s⁻¹ in assay [4]. The kon in assay [5] was found to be 980000 M⁻¹ s⁻¹; in assay [6], 970000 M⁻¹ s⁻¹; in assay [7], 1.01e+06 M⁻¹ s⁻¹. Besides, the binding result in the assay with mouse SIRPα-Fc is recorded as “no binding”.

B2: SIRPAB-8 (antibody, human IgG1, kappa, V domains shown)
VH: B1 VH with G30T, G31S, A53P, G55N, E57N
VL: B1 VL
Take B2: in the assay with human SIRPα on cells, the “fold increase over background (100 nM)” value stood at 1310 fold. Further, the “fold increase over background (100 nM)” value in [1] was 1020 fold. The binding result in assay [3] was “no binding”. The binding result with mouse SIRPα-Fc is recorded as “no binding”. For the same molecule, in assay [5], binding was characterised by a dissociation constant (Kd) of 22.3 nM, the koff came out at 0.0226 s⁻¹ and the on-rate constant (kon) stood at 1.02e+06 M⁻¹ s⁻¹.

B3: SIRPAB-10 (antibody, human IgG1, kappa, V domains shown)
VH: B1 VH with G30T, G33P, S52Y, E57N
VL: B1 VL
Regarding B3, the “fold increase over background (100 nM)” value was determined as 1170 fold in the assay with human SIRPα on cells and 1070 fold in assay [1]. For the same molecule, the Kd in [2] is 0.25 nM; in [3], 1.06 nM; in the assay with human SIRPβ-Fc, 0.34 nM; with human SIRPγ-Fc, 0.85 nM; with cyno SIRPα-Fc, 4.89 nM; in [4], 0.38 nM. Besides, the Kd was found to be 0.21 nM in [5], 1.58 nM in [6] and 1.93 nM in assay [7]. The koff in assay [2] was determined as 0.000345 s⁻¹; in assay [3] it was 0.00132 s⁻¹; in the assay with human SIRPβ-Fc, 0.000477 s⁻¹; in the assay with human SIRPγ-Fc it was 0.00123 s⁻¹; with cyno SIRPα-Fc, 0.00683 s⁻¹; in assay [4], 0.000491 s⁻¹. Also, the koff is 0.000261 s⁻¹ in assay [5], 0.00178 s⁻¹ in assay [6] and 0.00267 s⁻¹ in [7]. Further, the on-rate constant (kon) in [2] turned out to be 1.4e+06 M⁻¹ s⁻¹; in [3], 1.25e+06 M⁻¹ s⁻¹; with human SIRPβ-Fc, 1.4e+06 M⁻¹ s⁻¹; with human SIRPγ-Fc, 1.45e+06 M⁻¹ s⁻¹; with cyno SIRPα-Fc, 1.4e+06 M⁻¹ s⁻¹; in assay [4], 1.28e+06 M⁻¹ s⁻¹. For the same molecule, the kon was determined as 1.24e+06 M⁻¹ s⁻¹ in assay [5], 1.13e+06 M⁻¹ s⁻¹ in assay [6] and 1.38e+06 M⁻¹ s⁻¹ in assay [7]. Also, the binding result with mouse SIRPα-Fc is on record as “no binding”.

B4: SIRPAB-11-AAS (antibody, human IgG1, kappa, L234A L235A)
light: DIQMTQSPSSVSASVGDRVTITCRASQGISSWLAWYQQKPGKAPKLLIYAASNLQSGVPSRFSGSGSGTDFTLTISSLQPEDFATYYCQQGASFPITFGGGTKVEIKRTVAAPSVFIFPPSDEQLKSGTASVVCLLNNFYPREAKVQWKVDNALQSGNSQESVTEQDSKDSTYSLSSTLTLSKADYEKHKVYACEVTHQGLSSPVTKSFNRGEC
heavy: QVQLVQSGAEVKKPGASVKVSCKASGYTFRGYGISWVRQAPGQGLEWMGWISAYGGETNYAQKLQGRVTMTTDTSTSTAYMELRSLRSDDTAVYYCAREAGSSWYDFDLWGRGTLVTVSSASTKGPSVFPLAPSSKSTSGGTAALGCLVKDYFPEPVTVSWNSGALTSGVHTFPAVLQSSGLYSLSSVVTVPSSSLGTQTYICNVNHKPSNTKVDKKVEPKSCDKTHTCPPCPAPEAAGGPSVFLFPPKPKDTLMISRTPEVTCVVVSVSHEDPEVKFNWYVDGVEVHNAKTKPREEQYNSTYRVVSVLTVLHQDWLNGKEYKCKVSNKALPAPIEKTISKAKGQPREPQVYTLPPSREEMTKNQVSLTCLVKGFYPSDIAVEWESNGQPENNYKTTPPVLDSDGSFFLYSKLTVDKSRWQQGNVFSCSVMHEALHNHYTQKSLSLSPGK
notes: also called SIRPAB-11-IgG1-AAS
For the molecule B4, the concentration giving a half-maximal response (EC50) (commonly the midpoint of the concentration-response curve) turned out to be 15100 nM in the assay with FcγR3A (CD16aV158) and 3180 nM with FcγR1 (CD64).

B5: SIRPAB-7 (antibody, human IgG1, kappa, V domains shown)
VH: QVQLQESGPGLVKPSQTLSLTCTVSGGSISSGEYYWEWIRQHPGKGLEWIGYIYSSGFTYYNPSLKSRVTISVDTSKNQFSLKLSSVTAADTAVYYCAREGLDGSYGSSAWGQGTLVTVSS
VL: DIQLTQSPSSLSASVGDRVTITCQASQDISNYLNWYQQKPGKAPKLLIYDASNLETGVPSRFSGSGSGTDFTFTISSLQPEDIATYYCQQFAYLPYTFGGGTKVEIKR
For the molecule B5, the “fold increase over background (100 nM)” value with human SIRPα on cells was 2100 fold; in assay [1] it was 2390 fold. For the same molecule, the Kd in assay [2] was found to be 0.15 nM; in assay [3] it was 13.2 nM; with human SIRPβ-Fc, 2.56 nM; in the assay with human SIRPγ-Fc it was 0.1 nM; with cyno SIRPα-Fc, 4.59 nM; in assay [4], 12.2 nM. Moreover, the Kd in [5] came out at 10.2 nM; in assay [6], 0.66 nM; in assay [7], 0.95 nM. For the same molecule, the koff turned out to be 0.000271 s⁻¹ in assay [2]; 0.00956 s⁻¹ in assay [3]; 0.00391 s⁻¹ with human SIRPβ-Fc; 0.0002 s⁻¹ in the assay with human SIRPγ-Fc; 0.00546 s⁻¹ with cyno SIRPα-Fc; 0.0111 s⁻¹ in assay [4]. Besides, the figures for the koff in assay [5], in assay [6] and in assay [7] were 0.00718 s⁻¹, 0.00143 s⁻¹ and 0.00165 s⁻¹, respectively. In addition, the kon in [2] was found to be 1.84e+06 M⁻¹ s⁻¹; in assay [3], 730000 M⁻¹ s⁻¹; with human SIRPβ-Fc, 1.53e+06 M⁻¹ s⁻¹; with human SIRPγ-Fc, 1.94e+06 M⁻¹ s⁻¹; with cyno SIRPα-Fc, 1.19e+06 M⁻¹ s⁻¹; in [4] it was 907000 M⁻¹ s⁻¹. Further, the values for the kon in [5], in assay [6] and in assay [7] were 702000 M⁻¹ s⁻¹, 2.17e+06 M⁻¹ s⁻¹ and 1.74e+06 M⁻¹ s⁻¹, respectively.
